Assay results: patent US20260092918A1

Biological target: H2-K (b) OVA 257-264 SIINFEKL peptide-MHC (mouse) (UniProt P01901)
Experiment: cell-based or functional assay

Chain of UniProt P01901 (P01901 22-305 limits assumed): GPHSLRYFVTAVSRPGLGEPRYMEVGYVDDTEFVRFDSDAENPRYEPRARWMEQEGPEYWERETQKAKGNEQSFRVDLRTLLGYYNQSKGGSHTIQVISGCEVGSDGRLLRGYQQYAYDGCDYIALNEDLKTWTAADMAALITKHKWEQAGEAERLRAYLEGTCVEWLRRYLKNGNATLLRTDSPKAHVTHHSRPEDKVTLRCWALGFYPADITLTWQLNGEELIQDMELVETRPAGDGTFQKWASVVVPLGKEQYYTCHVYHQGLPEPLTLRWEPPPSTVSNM

Question: What does the source list for OT-1 TCR on OT-1 T-cells?
Answer: TCR tension signal, OT1 T-cells cultured in ACM relative to UCM (decrease): 37 % decrease; TCR tension signal, OT1 T-cells cultured in SCM relative to UCM (increase): 1240 % increase
